Source: article PMC10018351

Columns and labels:
hnRNPU [1] = biological target: hnRNPU (UniProt Q00839); assay: anti-Flag co-IP, hnRNPU immunoblot; settings: reference: wild type; sites S83,S85
hnRNPU [2] = biological target: hnRNPU (UniProt Q00839); assay: Flag-hnRNPU co-IP, HA-FOXN3 immunoblot; settings: reference: WT FOXN3 with HA-p38; sites S83,S85

binding against the reference (hnRNPU [1]) | binding against the reference (hnRNPU [2]) | Substance
stronger | – | FOXN3 (from UniProt O00409) S83,85A
– | stronger | FOXN3 (from UniProt O00409) S83,85A with HA-p38
